Broadly, the IC50 is the concentration that gives 50% inhibition.

For assay [1], the target named is T1, human calcitonin receptor (human, UniProt P30988 25-474).
T1 construct: whole, on cells; Membranes of BHK cells stably transfected with the human calcitonin receptor (Assay VII); also called hCTR; hCT
T1 sequence (looked up): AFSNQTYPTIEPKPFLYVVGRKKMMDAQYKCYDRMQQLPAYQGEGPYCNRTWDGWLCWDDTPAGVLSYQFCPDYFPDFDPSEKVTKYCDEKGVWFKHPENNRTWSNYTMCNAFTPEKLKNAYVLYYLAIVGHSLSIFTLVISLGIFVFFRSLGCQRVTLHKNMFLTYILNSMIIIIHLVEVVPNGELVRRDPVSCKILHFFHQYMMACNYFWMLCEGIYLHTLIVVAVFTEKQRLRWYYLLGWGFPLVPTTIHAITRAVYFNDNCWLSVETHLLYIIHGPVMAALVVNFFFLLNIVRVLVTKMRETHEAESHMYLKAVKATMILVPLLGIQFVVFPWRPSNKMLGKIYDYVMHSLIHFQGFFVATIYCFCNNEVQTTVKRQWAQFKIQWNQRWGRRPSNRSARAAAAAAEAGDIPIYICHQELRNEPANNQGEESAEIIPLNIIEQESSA
The experiment in a line: SPA competition against 125I-calcitonin, membranes of BHK cells with human calcitonin receptor (Assay VII). The method in brief:
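BHK hCTR membranes 35 ng/μL + SPA beads 0.05 mg/well; buffer 50 mM Hepes pH 7.4, 1 mM CaCl2, 5 mM MgCl₂, 0.1% OA, 0.02% Tween20. 120 min, 25° C., shaking. Scintillation count; IC50 by one-site binding competition.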

Assay [2] has as its target T1, human calcitonin receptor. Kind of assay: ratio of IC50 at hCTR over IC50 at hAmylin-R (SPA competition assays). Put shortly: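 IC₅₀ values were derived by one-site competition analysis of SPA counts. Cell membranes (35 ng/μL) with SPA beads were incubated with test compounds for 120 min at 25° C in Hepes buffer, pH 7.4, containing CaCl2, MgCl₂, OA and Tween20.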

Numbered stars: 1 amine (or outer) side, 2 acyl side, 3 side chain; on linkers, the order of the positions; unused ones are H or OH. Bridge positions count the residues as written; N and C are the ends. Side chains are listed from the residue outwards. Ends that are not written are not given here. * marks the point of attachment. C20 diacid = O=C(O)CCCCCCCCCCCCCCCCCCC(=O)*; γGlu = O=C(O)[C@H](CCC(=O)[*:2])N[*:1]

B1: N^ε1-[(4S)-4-carboxy-4-(19-carboxynonadecanoylamino)butanoyl]-[Glu14,Arg17,Pro21,Pro27,His35]-h-amylin (peptide)
peptide: K([γGlu-C20 diacid])CNTATCATQRLAEFLRHSSPNFGAIPSSTNVGSHTY-NH2
modifications: disulfide 2-7; N-terminus assumed
SMILES: CC[C@H](C)[C@H](NC(=O)[C@H](C)NC(=O)CNC(=O)[C@H](Cc1ccccc1)NC(=O)[C@H](CC(N)=O)NC(=O)[C@@H]1CCCN1C(=O)[C@H](CO)NC(=O)[C@H](CO)NC(=O)[C@H](Cc1c[nH]cn1)NC(=O)[C@H](CCCNC(=N)N)NC(=O)[C@H](CC(C)C)NC(=O)[C@H](Cc1ccccc1)NC(=O)[C@H](CCC(=O)O)NC(=O)[C@H](C)NC(=O)[C@H](CC(C)C)NC(=O)[C@H](CCCNC(=N)N)NC(=O)[C@H](CCC(N)=O)NC(=O)[C@@H](NC(=O)[C@H](C)NC(=O)[C@@H]1CSSC[C@H](NC(=O)[C@@H](N)CCCCNC(=O)CC[C@H](NC(=O)CCCCCCCCCCCCCCCCCCC(=O)O)C(=O)O)C(=O)N[C@@H](CC(N)=O)C(=O)N[C@@H]([C@@H](C)O)C(=O)N[C@@H](C)C(=O)N[C@@H]([C@@H](C)O)C(=O)N1)[C@@H](C)O)C(=O)N1CCC[C@H]1C(=O)N[C@@H](CO)C(=O)N[C@@H](CO)C(=O)N[C@H](C(=O)N[C@@H](CC(N)=O)C(=O)N[C@H](C(=O)NCC(=O)N[C@@H](CO)C(=O)N[C@@H](Cc1c[nH]cn1)C(=O)N[C@H](C(=O)N[C@@H](Cc1ccc(O)cc1)C(N)=O)[C@@H](C)O)C(C)C)[C@@H](C)O
Take B1: in assay [1], the half-inhibitory concentration (IC50) is 26.1 nM. Also, the “Ratio hCT/hAmylin binding” value in assay [2] turned out to be 26.4.

B2: N^ε1-[(4S)-4-carboxy-4-(19-carboxynonadecanoylamino)butanoyl]-[His14,Arg17,Pro21,Pro27,Pro31,Pro34]-h-amylin (peptide)
peptide: K([γGlu-C20 diacid])CNTATCATQRLAHFLRHSSPNFGAIPSSTPVGPNTY-NH2
modifications: disulfide 2-7; N-terminus assumed
SMILES: CC[C@H](C)[C@H](NC(=O)[C@H](C)NC(=O)CNC(=O)[C@H](Cc1ccccc1)NC(=O)[C@H](CC(N)=O)NC(=O)[C@@H]1CCCN1C(=O)[C@H](CO)NC(=O)[C@H](CO)NC(=O)[C@H](Cc1c[nH]cn1)NC(=O)[C@H](CCCNC(=N)N)NC(=O)[C@H](CC(C)C)NC(=O)[C@H](Cc1ccccc1)NC(=O)[C@H](Cc1c[nH]cn1)NC(=O)[C@H](C)NC(=O)[C@H](CC(C)C)NC(=O)[C@H](CCCNC(=N)N)NC(=O)[C@H](CCC(N)=O)NC(=O)[C@@H](NC(=O)[C@H](C)NC(=O)[C@@H]1CSSC[C@H](NC(=O)[C@@H](N)CCCCNC(=O)CC[C@H](NC(=O)CCCCCCCCCCCCCCCCCCC(=O)O)C(=O)O)C(=O)N[C@@H](CC(N)=O)C(=O)N[C@@H]([C@@H](C)O)C(=O)N[C@@H](C)C(=O)N[C@@H]([C@@H](C)O)C(=O)N1)[C@@H](C)O)C(=O)N1CCC[C@H]1C(=O)N[C@@H](CO)C(=O)N[C@@H](CO)C(=O)N[C@H](C(=O)N1CCC[C@H]1C(=O)N[C@H](C(=O)NCC(=O)N1CCC[C@H]1C(=O)N[C@@H](CC(N)=O)C(=O)N[C@H](C(=O)N[C@@H](Cc1ccc(O)cc1)C(N)=O)[C@@H](C)O)C(C)C)[C@@H](C)O
On to B2, for which the IC50 in assay [1] was determined as 2.04 nM. The “Ratio hCT/hAmylin binding” value in assay [2] was 24.8.

B3: N^ε1-[(4S)-4-carboxy-4-(19-carboxynonadecanoylamino)butanoyl]-[Glu14,Arg17,Pro21,Pro27,Pro34,Arg35]-h-amylin (peptide)
peptide: K([γGlu-C20 diacid])CNTATCATQRLAEFLRHSSPNFGAIPSSTNVGPRTY-NH2
modifications: disulfide 2-7; N-terminus assumed
SMILES: CC[C@H](C)[C@H](NC(=O)[C@H](C)NC(=O)CNC(=O)[C@H](Cc1ccccc1)NC(=O)[C@H](CC(N)=O)NC(=O)[C@@H]1CCCN1C(=O)[C@H](CO)NC(=O)[C@H](CO)NC(=O)[C@H](Cc1c[nH]cn1)NC(=O)[C@H](CCCNC(=N)N)NC(=O)[C@H](CC(C)C)NC(=O)[C@H](Cc1ccccc1)NC(=O)[C@H](CCC(=O)O)NC(=O)[C@H](C)NC(=O)[C@H](CC(C)C)NC(=O)[C@H](CCCNC(=N)N)NC(=O)[C@H](CCC(N)=O)NC(=O)[C@@H](NC(=O)[C@H](C)NC(=O)[C@@H]1CSSC[C@H](NC(=O)[C@@H](N)CCCCNC(=O)CC[C@H](NC(=O)CCCCCCCCCCCCCCCCCCC(=O)O)C(=O)O)C(=O)N[C@@H](CC(N)=O)C(=O)N[C@@H]([C@@H](C)O)C(=O)N[C@@H](C)C(=O)N[C@@H]([C@@H](C)O)C(=O)N1)[C@@H](C)O)C(=O)N1CCC[C@H]1C(=O)N[C@@H](CO)C(=O)N[C@@H](CO)C(=O)N[C@H](C(=O)N[C@@H](CC(N)=O)C(=O)N[C@H](C(=O)NCC(=O)N1CCC[C@H]1C(=O)N[C@@H](CCCNC(=N)N)C(=O)N[C@H](C(=O)N[C@@H](Cc1ccc(O)cc1)C(N)=O)[C@@H](C)O)C(C)C)[C@@H](C)O
For the molecule B3, the half-maximal inhibitory concentration (IC50) in assay [1] was 6.3 nM. For the same molecule, the “Ratio hCT/hAmylin binding” value in assay [2] was 38.6.

B4: N^ε1-[(4S)-4-carboxy-4-(19-carboxynonadecanoylamino)butanoyl]-[His14,Arg17,Pro21,Pro27,Pro34,Pro37]-h-amylin (peptide)
peptide: K([γGlu-C20 diacid])CNTATCATQRLAHFLRHSSPNFGAIPSSTNVGPNTP-NH2
modifications: disulfide 2-7; N-terminus assumed
SMILES: CC[C@H](C)[C@H](NC(=O)[C@H](C)NC(=O)CNC(=O)[C@H](Cc1ccccc1)NC(=O)[C@H](CC(N)=O)NC(=O)[C@@H]1CCCN1C(=O)[C@H](CO)NC(=O)[C@H](CO)NC(=O)[C@H](Cc1c[nH]cn1)NC(=O)[C@H](CCCNC(=N)N)NC(=O)[C@H](CC(C)C)NC(=O)[C@H](Cc1ccccc1)NC(=O)[C@H](Cc1c[nH]cn1)NC(=O)[C@H](C)NC(=O)[C@H](CC(C)C)NC(=O)[C@H](CCCNC(=N)N)NC(=O)[C@H](CCC(N)=O)NC(=O)[C@@H](NC(=O)[C@H](C)NC(=O)[C@@H]1CSSC[C@H](NC(=O)[C@@H](N)CCCCNC(=O)CC[C@H](NC(=O)CCCCCCCCCCCCCCCCCCC(=O)O)C(=O)O)C(=O)N[C@@H](CC(N)=O)C(=O)N[C@@H]([C@@H](C)O)C(=O)N[C@@H](C)C(=O)N[C@@H]([C@@H](C)O)C(=O)N1)[C@@H](C)O)C(=O)N1CCC[C@H]1C(=O)N[C@@H](CO)C(=O)N[C@@H](CO)C(=O)N[C@H](C(=O)N[C@@H](CC(N)=O)C(=O)N[C@H](C(=O)NCC(=O)N1CCC[C@H]1C(=O)N[C@@H](CC(N)=O)C(=O)N[C@H](C(=O)N1CCC[C@H]1C(N)=O)[C@@H](C)O)C(C)C)[C@@H](C)O
For the molecule B4, the IC50 in assay [1] turned out to be 0.157 nM. The “Ratio hCT/hAmylin binding” value in assay [2] worked out at 1.2.
Consider K([γGlu-C20 diacid])CNTATCATQRLAEFLRHSSPNFGAIPSSTNVGPHTY-NH2 (disulfide 2-7), for which the IC50 in assay [1] was 3.8 nM. For the same molecule, the “Ratio hCT/hAmylin binding” value in assay [2] stood at 21.2.

B5: N^ε1-[(4S)-4-carboxy-4-(19-carboxynonadecanoylamino)butanoyl]-[Glu14,Arg17,Pro21,Pro27,Pro34,Pro37]-h-amylin (peptide)
peptide: K([γGlu-C20 diacid])CNTATCATQRLAEFLRHSSPNFGAIPSSTNVGPNTP-NH2
modifications: disulfide 2-7; N-terminus assumed
SMILES: CC[C@H](C)[C@H](NC(=O)[C@H](C)NC(=O)CNC(=O)[C@H](Cc1ccccc1)NC(=O)[C@H](CC(N)=O)NC(=O)[C@@H]1CCCN1C(=O)[C@H](CO)NC(=O)[C@H](CO)NC(=O)[C@H](Cc1c[nH]cn1)NC(=O)[C@H](CCCNC(=N)N)NC(=O)[C@H](CC(C)C)NC(=O)[C@H](Cc1ccccc1)NC(=O)[C@H](CCC(=O)O)NC(=O)[C@H](C)NC(=O)[C@H](CC(C)C)NC(=O)[C@H](CCCNC(=N)N)NC(=O)[C@H](CCC(N)=O)NC(=O)[C@@H](NC(=O)[C@H](C)NC(=O)[C@@H]1CSSC[C@H](NC(=O)[C@@H](N)CCCCNC(=O)CC[C@H](NC(=O)CCCCCCCCCCCCCCCCCCC(=O)O)C(=O)O)C(=O)N[C@@H](CC(N)=O)C(=O)N[C@@H]([C@@H](C)O)C(=O)N[C@@H](C)C(=O)N[C@@H]([C@@H](C)O)C(=O)N1)[C@@H](C)O)C(=O)N1CCC[C@H]1C(=O)N[C@@H](CO)C(=O)N[C@@H](CO)C(=O)N[C@H](C(=O)N[C@@H](CC(N)=O)C(=O)N[C@H](C(=O)NCC(=O)N1CCC[C@H]1C(=O)N[C@@H](CC(N)=O)C(=O)N[C@H](C(=O)N1CCC[C@H]1C(N)=O)[C@@H](C)O)C(C)C)[C@@H](C)O
Take B5: the IC50 in assay [1] was found to be 0.117 nM. Moreover, in assay [2], the “Ratio hCT/hAmylin binding” value came out at 0.5.

(Values after patent publication US20140087995A1 (published 2014).)
